According to article PMC9482650, “Quantitative fragmentomics allow affinity mapping of interactomes” (Nature Communications, 2022):

How the values were obtained:
Assay in all cases: holdup assay
Set-up in all cases: key: below the threshold = too weak to quantify, mostly under pKd 3.1 to 4
Settings in all cases: plain residues with an end cap or a label only (N-terminal biotin on a linker: ado-ado)
MAGI2_4, Q86UL8 = biological target: MAGI2_4, Q86UL8
DLG5_1, Q8TDM6 = biological target: DLG5_1, Q8TDM6
Inadl_2, Q8NI35 = biological target: Inadl_2, Q8NI35
CASK, O14936 = biological target: CASK, O14936
PDZRN4_1, Q6ZMN7 = biological target: PDZRN4_1, Q6ZMN7
GRIP2_6, Q9C0E4 = biological target: GRIP2_6, Q9C0E4
SCRIB_2, Q14160 = biological target: SCRIB_2, Q14160
APBA2_1, Q99767 = biological target: T1, APBA2_1, Q99767
T1 sequence (Q99767 563-664, limits assumed, looked up): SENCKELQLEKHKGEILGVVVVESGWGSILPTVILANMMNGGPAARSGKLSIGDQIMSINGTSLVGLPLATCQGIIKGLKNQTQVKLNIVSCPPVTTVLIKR

GRIP2_7, Q9C0E4 = biological target: GRIP2_7, Q9C0E4
TJP3_3, O95049 = biological target: T2, TJP3_3, O95049
T2 sequence (O95049 375-456, limits assumed, looked up): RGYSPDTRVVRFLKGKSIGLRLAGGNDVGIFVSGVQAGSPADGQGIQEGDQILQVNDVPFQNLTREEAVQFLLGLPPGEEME

GRIP1_7, Q9Y3R0 = biological target: T3, GRIP1_7, Q9Y3R0
T3 sequence (Q9Y3R0 999-1096, limits assumed, looked up): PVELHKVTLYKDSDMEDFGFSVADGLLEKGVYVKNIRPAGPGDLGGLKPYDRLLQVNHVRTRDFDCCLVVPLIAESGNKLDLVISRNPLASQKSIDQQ

SCRIB_1, Q14160 = biological target: SCRIB_1, Q14160
LAP2, Q96RT1 = biological target: LAP2, Q96RT1
MPP7, Q5T2T1 = biological target: T4, MPP7, Q5T2T1
T4 sequence (Q5T2T1 134-230, limits assumed, looked up): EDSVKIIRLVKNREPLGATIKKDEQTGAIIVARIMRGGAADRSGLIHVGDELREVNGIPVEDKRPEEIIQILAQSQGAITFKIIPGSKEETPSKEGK

MAGI2_2, Q86UL8 = biological target: MAGI2_2, Q86UL8
GRIP1_3, Q9Y3R0 = biological target: T5, GRIP1_3, Q9Y3R0
T5 sequence (Q9Y3R0 247-346, limits assumed, looked up): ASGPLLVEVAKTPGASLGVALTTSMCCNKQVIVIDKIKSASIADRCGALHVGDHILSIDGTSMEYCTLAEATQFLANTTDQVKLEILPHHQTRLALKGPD

SNX27, Q96L92 = biological target: SNX27, Q96L92
TJP2_1, Q9UDY2 = biological target: TJP2_1, Q9UDY2
GRIP2_5, Q9C0E4 = biological target: GRIP2_5, Q9C0E4
GRIP2_4, Q9C0E4 = biological target: GRIP2_4, Q9C0E4
GORASP2, Q9H8Y8 = biological target: GORASP2, Q9H8Y8
SYNJ2BP, P57105 = biological target: T6, SYNJ2BP, P57105
T6 sequence (P57105 8-110, limits assumed, looked up): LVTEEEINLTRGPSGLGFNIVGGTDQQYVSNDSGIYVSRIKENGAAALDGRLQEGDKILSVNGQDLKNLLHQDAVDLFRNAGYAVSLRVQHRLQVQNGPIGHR

GRID2IP_1, A4D2P6 = biological target: GRID2IP_1, A4D2P6
HTRA2, O43464 = biological target: HTRA2, O43464
FRMPD4, Q14CM0 = biological target: FRMPD4, Q14CM0
GRIP1_5, Q9Y3R0 = biological target: T7, GRIP1_5, Q9Y3R0
T7 sequence (Q9Y3R0 568-668, limits assumed, looked up): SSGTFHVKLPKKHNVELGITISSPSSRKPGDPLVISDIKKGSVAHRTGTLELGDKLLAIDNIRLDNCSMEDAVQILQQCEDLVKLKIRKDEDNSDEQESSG

APBA1_1, Q02410 = biological target: T8, APBA1_1, Q02410
T8 sequence (Q02410 651-752, limits assumed, looked up): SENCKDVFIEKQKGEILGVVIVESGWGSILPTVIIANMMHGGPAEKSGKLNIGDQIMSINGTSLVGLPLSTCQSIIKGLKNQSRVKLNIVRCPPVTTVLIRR

GRIP1_2, Q9Y3R0 = biological target: T9, GRIP1_2, Q9Y3R0
T9 sequence (Q9Y3R0 145-248, limits assumed, looked up): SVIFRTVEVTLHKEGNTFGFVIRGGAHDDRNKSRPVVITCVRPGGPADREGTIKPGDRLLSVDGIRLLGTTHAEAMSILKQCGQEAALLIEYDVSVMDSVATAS

Measured: pKd

GRIP2_5, Q9C0E4, sequence (Q9C0E4 544-642): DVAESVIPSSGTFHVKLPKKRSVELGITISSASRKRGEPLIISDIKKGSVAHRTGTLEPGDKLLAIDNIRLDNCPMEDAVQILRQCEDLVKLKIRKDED
TJP2_1, Q9UDY2, sequence (Q9UDY2 24-128): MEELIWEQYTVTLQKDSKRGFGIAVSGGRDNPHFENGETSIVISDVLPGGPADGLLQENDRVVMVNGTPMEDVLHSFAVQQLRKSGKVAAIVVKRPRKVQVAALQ
HTRA2, O43464, sequence (O43464 355-458): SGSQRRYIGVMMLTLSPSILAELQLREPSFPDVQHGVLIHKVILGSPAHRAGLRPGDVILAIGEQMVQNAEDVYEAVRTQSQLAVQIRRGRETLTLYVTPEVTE
MAGI2_2, Q86UL8, sequence (Q86UL8 410-522): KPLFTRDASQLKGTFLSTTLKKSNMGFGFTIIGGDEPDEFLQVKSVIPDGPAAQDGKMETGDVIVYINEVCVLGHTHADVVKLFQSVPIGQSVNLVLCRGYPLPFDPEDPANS
LAP2, Q96RT1, sequence (Q96RT1 other isoform, or with tags, fused parts or gaps): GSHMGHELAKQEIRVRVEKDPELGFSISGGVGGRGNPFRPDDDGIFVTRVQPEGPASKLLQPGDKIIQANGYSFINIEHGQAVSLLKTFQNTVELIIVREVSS
Inadl_2, Q8NI35, sequence (Q8NI35 238-335): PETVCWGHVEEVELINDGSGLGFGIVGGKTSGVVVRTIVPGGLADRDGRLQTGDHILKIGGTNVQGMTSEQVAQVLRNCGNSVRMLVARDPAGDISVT
MAGI2_4, Q86UL8, sequence (Q86UL8 772-865): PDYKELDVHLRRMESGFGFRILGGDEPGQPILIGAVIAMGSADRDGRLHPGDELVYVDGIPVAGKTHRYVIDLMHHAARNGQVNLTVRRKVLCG
FRMPD4, Q14CM0, sequence (Q14CM0 67-160): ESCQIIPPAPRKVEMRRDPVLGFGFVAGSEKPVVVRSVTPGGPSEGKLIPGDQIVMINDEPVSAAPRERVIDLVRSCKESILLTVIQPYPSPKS
DLG5_1, Q8TDM6, sequence (Q8TDM6 617-713): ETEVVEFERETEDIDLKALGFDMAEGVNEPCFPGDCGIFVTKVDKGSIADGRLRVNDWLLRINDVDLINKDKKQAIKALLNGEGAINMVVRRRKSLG
SCRIB_1, Q14160, sequence (Q14160 718-814): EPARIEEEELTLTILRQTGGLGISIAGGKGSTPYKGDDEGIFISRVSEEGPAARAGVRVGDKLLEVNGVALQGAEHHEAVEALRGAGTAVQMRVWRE
GRIP2_4, Q9C0E4, sequence (Q9C0E4 446-548): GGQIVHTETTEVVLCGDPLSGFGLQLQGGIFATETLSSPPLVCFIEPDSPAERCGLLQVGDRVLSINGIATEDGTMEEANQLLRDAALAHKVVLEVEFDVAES
PDZRN4_1, Q6ZMN7, sequence (Q6ZMN7 213-318): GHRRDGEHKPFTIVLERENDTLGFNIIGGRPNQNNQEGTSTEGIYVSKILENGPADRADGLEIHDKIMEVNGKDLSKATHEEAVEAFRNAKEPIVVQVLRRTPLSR
GRIP2_7, Q9C0E4, sequence (Q9C0E4 934-1023): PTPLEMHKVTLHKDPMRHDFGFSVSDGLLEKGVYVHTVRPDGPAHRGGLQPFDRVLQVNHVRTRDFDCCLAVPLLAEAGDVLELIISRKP
GRID2IP_1, A4D2P6, sequence (A4D2P6 1-87): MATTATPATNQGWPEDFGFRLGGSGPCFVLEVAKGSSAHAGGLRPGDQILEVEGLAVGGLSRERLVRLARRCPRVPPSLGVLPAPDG
SCRIB_2, Q14160, sequence (Q14160 857-960): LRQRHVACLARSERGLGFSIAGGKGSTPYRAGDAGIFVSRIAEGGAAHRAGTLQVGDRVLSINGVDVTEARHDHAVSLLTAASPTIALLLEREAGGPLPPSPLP
GRIP2_6, Q9C0E4, sequence (Q9C0E4 648-740): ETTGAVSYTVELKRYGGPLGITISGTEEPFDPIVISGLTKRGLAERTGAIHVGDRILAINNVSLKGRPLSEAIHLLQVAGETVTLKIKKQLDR
CASK, O14936, sequence (O14936 487-570): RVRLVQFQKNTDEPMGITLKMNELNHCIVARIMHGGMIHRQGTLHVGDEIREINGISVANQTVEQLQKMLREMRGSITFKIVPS

THREVKFTSL [CD46, P15529]
3.73: TJP2_1, Q9UDY2
4.57: PDZRN4_1, Q6ZMN7
4.16: FRMPD4, Q14CM0
3.67: SCRIB_2, Q14160
4.35: SNX27, Q96L92
4.59: SYNJ2BP, P57105
4.95: SCRIB_1, Q14160
3.88: MAGI2_2, Q86UL8
3.98: GRIP2_6, Q9C0E4
below the threshold: all other assays above

PSDSVGKDVF [EGLN1, Q9GZT9]
below the threshold: all assays above

QKNKDREYYV [NRXN3, Q9HDB5]
4.92: MPP7, Q5T2T1
3.8: MAGI2_4, Q86UL8
4.97: Inadl_2, Q8NI35
3.55: CASK, O14936
3.64: SNX27, Q96L92
4.4: FRMPD4, Q14CM0
3.52: TJP2_1, Q9UDY2
4.89: GRIP2_7, Q9C0E4
4.67: GORASP2, Q9H8Y8
3.98: TJP3_3, O95049
4.02: HTRA2, O43464
4.32: MAGI2_2, Q86UL8
4.27: GRIP2_6, Q9C0E4
4.62: GRIP1_7, Q9Y3R0
below the threshold: all other assays above

VYEVPVETKF [SLC26A3, P40879]
3.67: SCRIB_2, Q14160
3.57: SYNJ2BP, P57105
3.65: FRMPD4, Q14CM0
4.18: SCRIB_1, Q14160
5.33: SNX27, Q96L92
4.02: TJP2_1, Q9UDY2
below the threshold: all other assays above
